Among the data in paper PMC5423696 are Kd values, retold here.

In general, Kd refers to the free concentration of one partner at which half of the binding sites on the other are occupied at equilibrium, for simple one-to-one binding. Low values mean higher affinity, high ones lower affinity.

The test has as its target LAMP1_(distal)-Fc (human). Nature of the test: SPR. A general note: In SPR one partner is held on a chip, and binding of the other changes the refractive index at the surface.

Take “GP1_(LASV)-Fc (from UniProt P08669 75-237) (Fc fusion)”: the Kd stood at 15 nM.
